Key:
[1] = target: T1, soluble recombinant human vimentin (srhVim), full length, expressed from pET30 in E. coli (human, UniProt P08670 2-466); experiment: ELISA, wells coated with PSGL-1/Fc 10 µg/mL, srhVim added at rising concentrations, detection with anti-His/HRP
T1 construct: also called full length vimentin; full-length Vimentin; not shown: His tag from pET30 (Ni2+ purification, anti-His detection)
Method: The observations in these experiments, in certain embodiments, are attributed to srhVim either affecting P-selectin, PSGL-1, or both. ELISA was performed by coating 96-well plates with either PSGL-1/Fc protein (10 μg/mL), P-selectin/Fc protein (10 μg/mL), or BSA (10 μg/mL) and adding various concentrations of srhVim to each well. Detection was through anti-His/HRP antibodies. Increasing amounts of srhVim bound to P-selectin/Fc protein and reached saturation at 20 μg/mL. There was no binding of srhVim to PSGL-1/Fc (FIG. 6B).

[2] = target: T2, recombinant human vimentin (rhVim), expressed from pQE-30 in E. coli M15 (human, UniProt P08670 2-466); experiment: ELISA, wells coated with PSGL-1/Fc 10 µg/mL in DPBS, blocked with 1% BSA, rhVim added at rising concentrations, detection with HRP-conjugated anti-polyhistidine antibody
T2 construct: also called pQE-30-hVim product; not shown: polyhistidine tag from pQE-30 (Ni2+ purification, anti-polyhistidine detection)
Method: rhVim binding assay—To determine which proteins to which rhVim binds, we performed enzyme linked immunosorbent assays (ELISA) as we described (Da, et al., 2014). Immunoplate wells were coated overnight at 4° C. with P-selectin/Fc or PSGL-1/Fc (10 μg/ml in DPBS). Wells were washed with DPBS and then blocked with 1% BSA for one hour. After blocking, rhVim was added in increasing concentrations and detected using a HRP-conjugated anti-polyhistidine antibody. Tetramethylbenzidine solution was used as the substrate and the reactions were stopped using 1 N sulfuric acid. All ELISA measurements were performed in duplicate and the data reported were averaged from two separate experiments performed.
The effect of rhVim blocking PMN adhesion to P-selectin could be attributed to rhVim either affecting P-selectin, PSGL-1, or both. Therefore, ELISAs were performed with wells coated either PSGL-1/Fc protein (10 μg/mL) or P-selectin/Fc protein (10 μg/mL) and incubated with increasing concentrations of rhVim to each well. Increasing amounts of rhVim bound to P-selectin/Fc protein and reached saturation at 20 μg/mL. There was no binding of rhVim to PSGL-1/Fc at any concentration (FIG. 15C).

T1 sequence (P08670 2-466): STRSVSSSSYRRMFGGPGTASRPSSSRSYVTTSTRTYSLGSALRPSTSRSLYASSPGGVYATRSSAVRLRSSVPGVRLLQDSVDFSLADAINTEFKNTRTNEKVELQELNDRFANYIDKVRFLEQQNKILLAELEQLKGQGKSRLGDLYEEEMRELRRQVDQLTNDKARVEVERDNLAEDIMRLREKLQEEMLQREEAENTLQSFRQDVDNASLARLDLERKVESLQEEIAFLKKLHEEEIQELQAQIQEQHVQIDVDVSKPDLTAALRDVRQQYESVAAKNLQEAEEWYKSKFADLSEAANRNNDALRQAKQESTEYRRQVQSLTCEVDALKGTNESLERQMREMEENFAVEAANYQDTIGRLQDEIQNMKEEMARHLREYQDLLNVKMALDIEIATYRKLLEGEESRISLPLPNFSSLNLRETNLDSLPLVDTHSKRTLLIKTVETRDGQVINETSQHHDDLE
T2 sequence (P08670 2-466): as above

B1: PSGL-1/Fc protein (Fc fusion, UniProt Q14242 42-295, looked up)
chain: QATEYEYLDYDFLPETEPPEMLRNSTDTTPLTGPGTPESTTVEPAARRSTGLDAGGAVTELTTELANMGNLSTDSAAMEIQTTQPAATEAQTTQPVPTEAQTTPLAATEAQTTRLTATEAQTTPLAATEAQTTPPAATEAQTTQPTGLEAQTTAPAAMEAQTTAPAAMEAQTTPPAAMEAQTTQTTAMEAQTTAPEATEAQTTQPTATEAQTTPLAAMEALSTEPSATEALSMEPTTKRGLFIPFSVSSVTHKG
notes: Bought from R & D Systems; the species is not clearly stated; not shown: Fc part
[1]
  binding result: no binding (tested: 40 µg/mL)
[2]
  binding result: no binding (tested: 40 µg/mL)

— patent US20200061153A1 (BAYLOR COLLEGE OF MEDICINE, published 2020)
